Experimental findings from the supplement of paper PMC9170038 are described below.

The subject of this data set is MS2 coat protein. The experiment in a line: apparent KD of MS2 coat protein; designed switch direction (-1 OFF switch, 1 ON switch): -1; higher = weaker reporter binding. In a few lines: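 The reported apparent KD is a per-design median over clusters, from curve fits of normalised cluster fluorescence. Protein titrations used SNAP-549-labelled MS2 coat protein, doubled from 0.7 or 1.5 nM to 3 µM, in Tris-HCl pH 7.5 buffer with KCl, MgCl2, BSA, DTT, tRNA and Tween-20, with no input, 200 uM small-molecule ligand, or an oligonucleotide input. The RNA switches were transcribed on Illumina chips by stalled E. coli RNA polymerase.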

Setting [1] is: Eterna round: R95, input ligand: FMN 200 uM.
Where [2] appears, read: Eterna round: R95, input ligand: microRNA oligo, concentration not stated.
The mark [3] stands for this setting: Eterna round: R95, input ligand: none.
[4] abbreviates: input ligand: microRNA oligo, concentration not stated.

Consider “UAUAAAACAUAGGAUAUCGAAAUUAUCAUUUAACGAGAAGGAUGAACAUGAGGAUCACCCAUGUGGUAUCAUGG [Mat - Exclusion 6 - JL Mod - D10] (puzzle: Exclusion 6)”, for which the “apparent KD of MS2 coat protein” value is, setting by setting: under setting [1], 370 nM; under setting [2], 425 nM; under setting [3], 238 nM.
Taken in the same sequence, the figures for “UAUAAAAUAUAGGAUAUCGAAUAUAUUAUUUAACGAGAAGGAUGAACAUGAGGAUCACCCAUGUGGUAUCAUGG [Mat - Exclusion 6 - JL Mod - D37] (puzzle: Exclusion 6)” were 199 nM, 255 nM and 415 nM.
Consider “UAUAUAUAGUAAGGAUAUGUAAUUAUAUUAUAAACAGAAGGUACUGACAUGAGGAUCACCCAUGUUUUAGUGUGGGCAUGUAGA [JMF's solution 38] (Eterna round: R96, puzzle: Exclusion NG 1)”, for which the “apparent KD of MS2 coat protein” value (input ligand: FMN 200 uM) is 85.9 nM, the “apparent KD of MS2 coat protein” value under setting [4] was 60.1 nM and the “apparent KD of MS2 coat protein” value (input ligand: none) is 97.7 nM.
Consider “UAUAUAUAGUAAGGAUAUGUAAUUAUUCUAUAAACAGAAGGUACUGACAUGAGGAUCACCCAUGUUUUAGUGUGGGCAUGUAGA [JMF's solution 40] (Eterna round: R96, puzzle: Exclusion NG 1)”, for which the “apparent KD of MS2 coat protein” value under setting [4] turned out to be 33.8 nM.
For “UAUAUAUAGUAAGGAUAUGUAUAUACUUUAUAAACAGAAGGUACUGACAUGAGGAUCACCCAUGUUUUAGUGUGGGCAUGUAGA [JMF's solution 57] (Eterna round: R96, puzzle: Exclusion NG 1)”, the “apparent KD of MS2 coat protein” value under setting [4] amounted to 57.1 nM.
Still for that read-out and setting: for “UAUAUAUAGUAAGGAUAUGUAUAUAUUUUAUAAACAGAAGGUACUGACAUGAGGAUCACCCAUGUUUUAGUGUGGGCAUGUAGA [JMF's solution 7] (Eterna round: R96, puzzle: Exclusion NG 1)” the value was 57.5 nM.
On the same count and under the same terms, the value for “UAUAUAUAGUAAGGAUAUGUAUUAAUUUUUUAAACAGAAGGUACUGACAUGAGGAUCACCCAUGUUUUAGUGUGGGCAUGUAGA [JMF's solution 86] (Eterna round: R96, puzzle: Exclusion NG 1)” was 65.7 nM; that for “UAUAUAUAGUAAGGAUAUGUAUUUAUGUUAUAAACAGAAGGUACUGACAUGAGGAUCACCCAUGUUUUAGUGUGGGCAUGUAGA [JMF's solution 16] (Eterna round: R96, puzzle: Exclusion NG 1)” was 76.3 nM.
As for “UAUAUGUCAGGAUAUUAGUAGUAAAUGAAUAAAAUUAUUACUGAGAAGGGACAUGAGGAUCACCCAUGUGCCUU [Mat - Exclusion 4 - Eli Mod - D23] (Eterna round: R97, puzzle: Exclusion 4)”, the “apparent KD of MS2 coat protein” value is, setting by setting: (input ligand: FMN 200 uM) 20.6 nM; (input ligand: none) 16.6 nM.
Regarding “UAUCAACAUGAGGAUCACCCAUGUGAGGAUAUCAAAACCAGAGCGGAUCUCUGGCCCAUGAGAAGGUACAUGGU [ElNandoxlusion 6 - Jieux - Exclusion 1] (Eterna round: R97, puzzle: Exclusion 1)”, the “apparent KD of MS2 coat protein” value amounted to 111 nM (input ligand: FMN 200 uM) and 22.3 nM (input ligand: none).
Take “UAUCAUCAUGUAGGAUAUGCGUGGCAAAGCUAUGCAGAAGGACAUGAGGAUCACCCAUGUUCUAGCGUCUGAGUACAGAUGCUA [Mat - Exclusion NG 1 - Mod of JL - D75] (Eterna round: R96, puzzle: Exclusion NG 1)”: the “apparent KD of MS2 coat protein” value is, setting by setting: (input ligand: FMN 200 uM) 278 nM; under setting [4], 66.4 nM; (input ligand: none) 83.7 nM.
Take “UAUCGGCGGACCGAGGCUUUUUGCUCGUCUUAUGCUAUGACAUGAGGAUCACCCAUGUGGUGGUGGUCCGUUGUAGU [JL ViennaUCT Bitein mod 10] (puzzle: Sensor v3, turn-off variant 2)”: the “apparent KD of MS2 coat protein” value amounted to 64.5 nM under setting [1], 12.6 nM under setting [2] and 48.1 nM under setting [3].
Take “UAUCUACAUGUAGGAUAUGCGUGGCGAAGCUAUGCAGAAGGACAUGAGGAUCACCCAUGUUUUAGCGUCUGCGUACAGAUGCGU [JL ENG1 1.48] (Eterna round: R96, puzzle: Exclusion NG 1)”: the “apparent KD of MS2 coat protein” value by setting is: (input ligand: FMN 200 uM) 149 nM; under setting [4], 16.4 nM; (input ligand: none) 23.2 nM.
For “UAUGAUUUAGGAUAUUGUACUGCUGACAUGAGGAUCACCCAUGUAUGCUAACUCGGCCGUCGAGAAGGAGAUUAUG [BotMod 29 - Jieux - Exclusion 5] (Eterna round: R97, puzzle: Exclusion 5)”, the “apparent KD of MS2 coat protein” value reads like this: (input ligand: FMN 200 uM) 37.9 nM; (input ligand: none) 39.4 nM.
Taken in the same sequence, the figures for “UAUGGUUAAGUCAGGAUAUACUAAUAGAAGUCUGUGUAGAAGGGACAUGAGGAUCACCCAUGUAUGGUAGUGUU [Ex4 #60] (Eterna round: R97, puzzle: Brourd's mod of Exclusion 4)” were 119 nM and 122 nM.
As for “UAUGGUUAAGUCAGGAUAUGCUCAUAGAGGUCUAUGCAGAAGGGACAUGAGGAUCACCCAUGUAUGGUCGUGUU [Ex4 #64] (Eterna round: R97, puzzle: Brourd's mod of Exclusion 4)”, the “apparent KD of MS2 coat protein” value is, setting by setting: (input ligand: FMN 200 uM) 84.6 nM; (input ligand: none) 53.6 nM.
On to “UAUGUGUGAGGAUAUGGUAAAGAUAAGAUGAUGAAAGAACUCCAGAAGGCACAUGAGGAUCACCCAUGUAGAUA [Mat - Exclusion 4 - Mod of JL - D23] (puzzle: Exclusion 4)”, for which the “apparent KD of MS2 coat protein” value under setting [2] turned out to be 20.4 nM.
With “UAUUAAACAAGCAGGUCCCACAUGAGGAUCACCCAUGUGCUCGUCUUAUAAGGUACUGUGAUGAAAGUUACGGUACC [Elimod 17 - Jieux - Sensor, turn-off variant 1] (Eterna round: R97, puzzle: Sensor, turn-off variant 1)”, the “apparent KD of MS2 coat protein” value reads like this: (input ligand: FMN 200 uM) 36.4 nM; (input ligand: none) 46.2 nM.
Regarding “UAUUAACAAGCAAGAUCCCACAUGAGGAUCACCCAUGUGCUCGUCUUAUAAGGUACUGUGACGAAAGUCACGGUACC [Sensor 3, v1 - 80] (puzzle: Sensor v3, turn-off variant 1)”, the “apparent KD of MS2 coat protein” value under setting [1] was 26.5 nM, the “apparent KD of MS2 coat protein” value under setting [2] came out at 580 nM and the “apparent KD of MS2 coat protein” value under setting [3] was determined as 28 nM.
For “UAUUAACAAGCUAGGUCCCACAUGAGGAUCACCCAUGUGCUCGUCUUAUAAGGUACUGUGACGAAAGUCACGGUACC [Sensor 3, v1 - 79] (Eterna round: R96, puzzle: Sensor v3, turn-off variant 1)”, the “apparent KD of MS2 coat protein” value runs as follows: (input ligand: FMN 200 uM) 30.2 nM; under setting [4], 464 nM; (input ligand: none) 38.4 nM.
As for “UAUUAACAAGCUAGGUCCCACAUGAGGAUCACCCAUGUGCUCGUCUUAUAAGGUACUGUGACGAAAGUCACGGUACC [Sensor 3, v1 - 79] (puzzle: Sensor v3, turn-off variant 1)”, the “apparent KD of MS2 coat protein” value under setting [1] came to 30 nM, the “apparent KD of MS2 coat protein” value under setting [2] was determined as 909 nM and the “apparent KD of MS2 coat protein” value under setting [3] was determined as 31.5 nM.
Take “UAUUAACAAGUAAGAUCCCACAUGAGGAUCACCCAUGUUCGUCUUAUAGGUACUGUGACACAAAGUGUCACGGUACC [Mod of Eli's R95 Sensor 3, v1 - 87] (Eterna round: R97, puzzle: Sensor, turn-off variant 1)”: the “apparent KD of MS2 coat protein” value is, setting by setting: (input ligand: FMN 200 uM) 36.9 nM; (input ligand: none) 44.9 nM.
On to “UAUUAACAUGUAGGAUAUCUGCACGAUUAGUGCAGAGAAGGACAUGAGGAUCACCCAUGUAGAUCAUAAUAAUUUAAUUUAAUU [ENG1/6-D1] (Eterna round: R96, puzzle: Exclusion NG 1)”, for which the “apparent KD of MS2 coat protein” value under setting [4] was 106 nM.
For the sequence “UAUUACAAGCGAGAUCCUAACAUGAGGAUCACCCAUGUGCUCGUCUCAUAUAGGACUAUCACGAAAGUGAUAGUCCA [Level Boss var2-01] (puzzle: Sensor v3, turn-off variant 1)”, the “apparent KD of MS2 coat protein” value is 21.5 nM under setting [1], 140 nM under setting [2] and 15.2 nM under setting [3].
The corresponding values for “UAUUAGAGAGGAUAUAUGAUGUGAAACAUGAGGAUCACCCAUGUAAUAUUAUGGAUGUAAAUAGAAGGCUCAUUUA [Mat - Exclusion 5 - JL mod - D15] (puzzle: Exclusion 5)” are 47.4 nM, 77.5 nM and 80.2 nM.
As for “UAUUAGCAAGCAAGAUCCCACAUGAGGAUCACCCAUGUGCUCGUCUUAAGCCCAGAAUUACUGGGCGCUCGUCUUAU [Winner reversed engineered 22] (Eterna round: R97, puzzle: Sensor, turn-off variant 1)”, the “apparent KD of MS2 coat protein” value was 30.3 nM (input ligand: FMN 200 uM) and 28.4 nM (input ligand: none).
The corresponding values for “UAUUAGCAAGCGAGAUCCCACAUGAGGAUCACCCAUGUAAUAAAAGCAUCCAGAAUUACUGGGUGCGCUCGUCUUAU [Winner reversed engineered 14] (Eterna round: R97, puzzle: Sensor, turn-off variant 1)” are 47.7 nM and 49.5 nM.
Taken in the same sequence, the figures for “UAUUAGCAAGCGAGAUCCCACAUGAGGAUCACCCAUGUGCAUCCAGAAUUACUGGGUGCAAAAGCUCGUCUUAUAUA [Winner reversed engineered 2] (Eterna round: R97, puzzle: Sensor, turn-off variant 1)” were 62.4 nM and 58.1 nM.
As to “UAUUAGCAAGCGAGAUCCCACAUGAGGAUCACCCAUGUGCUCGUCUUAUAAAAGACUGUGACAAAAGUCACGGUCAC [Sensor 3, v1 - 91 v5] (Eterna round: R97, puzzle: Sensor, turn-off variant 1)”, the “apparent KD of MS2 coat protein” value (input ligand: FMN 200 uM) came out at 15.9 nM and the “apparent KD of MS2 coat protein” value (input ligand: none) worked out at 15.1 nM.
